Test system: MS2 coat protein
Assay: apparent KD of MS2 coat protein; higher = weaker reporter binding
Settings: Eterna round: R107
Outline: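 Illumina sequencing clusters served as templates for on-chip transcription of the designed RNA switches. SNAP-549-labelled MS2 coat protein was then titrated in twofold steps from 0.7 or 1.5 nM to 3 µM, allowing 0.8–1.5 h per step at first and 10–20 min per step later. The buffer held 100 mM Tris-HCl pH 7.5, 80 mM KCl and 4 mM MgCl2, without or with constant ligand. Apparent KD is the median per design of normalised cluster binding-curve fits.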

[1] = input ligand: theophylline 20 uM
[2] = input ligand: theophylline 2 mM
[3] = input ligand: tryptophan 2.4 mM

## ACAUUGCGCACGGCCGCCACUGGCUAUAGAUUUAUAGCAUUAAUGAACAUGAGGAUCACCCAUGUCAGGACCGGGUGCGAACCAU [SSTryp B #9]
Input ligand: arginine 13.2 mM
  apparent KD of MS2 coat protein: 14 nM
[1]
  apparent KD of MS2 coat protein: 22.7 nM
[2]
  apparent KD of MS2 coat protein: 27.6 nM

## AAGACGGUCGGAAGGAGCGGUACAUGAGGAUCACCCAUGUAUUCCUGGGCAUCCGUAGUGUGCCAGGUAGGUCGCCGAUUGCGGG [XArg-B13]
Input ligand: arginine 13.2 mM
  apparent KD of MS2 coat protein: 40.3 nM
Input ligand: none
  apparent KD of MS2 coat protein: 37.9 nM
[1]
  apparent KD of MS2 coat protein: 91.7 nM
[2]
  apparent KD of MS2 coat protein: 97.2 nM
[3]
  apparent KD of MS2 coat protein: 40.9 nM

## UUACAUGAGGAUCACCCAUGUUUACUAUGUCGAGGACCGGUACGGCCGCCACUCGUAUUUGAUGAUUUAGGUGCCACAAGUUAUU [JR_Nu_ExcTryptoA_Sub024]
Input ligand: arginine 13.2 mM
  apparent KD of MS2 coat protein: 16.1 nM
[1]
  apparent KD of MS2 coat protein: 26.6 nM
[2]
  apparent KD of MS2 coat protein: 22.6 nM

## UGUAUGUGAUUUGAUACCAGACCAGCUGGUGGUACAUGAGGAUCACCCAUGUAGGUUUGGGUCCCUUGGCAGCAAAUCGCAUACU [SSTheo B #24]
Input ligand: arginine 13.2 mM
  apparent KD of MS2 coat protein: 54.6 nM
[1]
  apparent KD of MS2 coat protein: 64.5 nM
[3]
  apparent KD of MS2 coat protein: 44 nM

## GCUUGGGUGGCACAGCACUGGCAGUGCGAUACCAGCACGGUAACGUGCCCUUGGCAGCGCACAUGAGGAUCACCCAUGUGGUGCG [#1 Exclusion - Theophylline A Attempt #26 (HarryS)]
Input ligand: arginine 13.2 mM
  apparent KD of MS2 coat protein: 18.8 nM
Input ligand: none
  apparent KD of MS2 coat protein: 24.4 nM
[1]
  apparent KD of MS2 coat protein: 66.9 nM
[2]
  apparent KD of MS2 coat protein: 275 nM
[3]
  apparent KD of MS2 coat protein: 26 nM

## AUACAUGAGGAUCACCCAUGUUACACUGAAGGAGCGACAUGUUUGUCAGGUAGGUCGCAGUGAAGUUUAAUAAAUAGUUGAUCUU [#07 Same State - Arginine A]
Input ligand: arginine 13.2 mM
  apparent KD of MS2 coat protein: 37.6 nM
Input ligand: none
  apparent KD of MS2 coat protein: 57 nM
[1]
  apparent KD of MS2 coat protein: 56.8 nM
[2]
  apparent KD of MS2 coat protein: 62.6 nM
[3]
  apparent KD of MS2 coat protein: 37 nM

## AAUAACAUGAGGAUCACCCAUGUAAAAGAUACCAGAGUGAUGAUCCUCCCUUGGCAGCUUAAUAACGCUAUUGAUUACAAUAGCG [Mat - Same State Theophlline A - Mod of Eli - D6]
Input ligand: arginine 13.2 mM
  apparent KD of MS2 coat protein: 33.5 nM
[1]
  apparent KD of MS2 coat protein: 98.7 nM
[3]
  apparent KD of MS2 coat protein: 37.2 nM

## AAAUAUAACUCGGCCGCCACUGACAUGAGGAUCACCCAUGUUAUAUUUUAUACAUGAGGAUCACCCAGGACCGGGAGAAUAUAAA [Jonah 1]
Input ligand: arginine 13.2 mM
  apparent KD of MS2 coat protein: 61.7 nM
Input ligand: none
  apparent KD of MS2 coat protein: 940 nM
[1]
  apparent KD of MS2 coat protein: 484 nM
[2]
  apparent KD of MS2 coat protein: 696 nM
[3]
  apparent KD of MS2 coat protein: 1590 nM

## GCACAAGAUGGAAGGAGCGCUGGAAAAGGUCACAUGAGGAUCACCCAUGUUCUCCUAACCGAGCAGGUAGGUCGCCAUCUUGUGC [SSAB NP+V+V2 #1]
Input ligand: arginine 13.2 mM
  apparent KD of MS2 coat protein: 24 nM
Input ligand: none
  apparent KD of MS2 coat protein: 23.7 nM
[1]
  apparent KD of MS2 coat protein: 25.6 nM
[2]
  apparent KD of MS2 coat protein: 29.8 nM
[3]
  apparent KD of MS2 coat protein: 25.9 nM

## AGCCACUCGAGUGAUCCUCACGAGUGGCUACGAGGACCGGUACGGCCGCCACUCGAAUUAACAUGAGGAUCACCCAUGUAAUCAC [Brourdmod05]
Input ligand: arginine 13.2 mM
  apparent KD of MS2 coat protein: 81.1 nM
[1]
  apparent KD of MS2 coat protein: 135 nM
[2]
  apparent KD of MS2 coat protein: 597 nM

## GCCGGACUUUCGGCCGCCACUGAGAGAGUCGUGUGAACAUGAGGAUCACCCAUGUAAUAUAUAUACAGGACCGGGAGGGUCCGGC [4.T]
Input ligand: arginine 13.2 mM
  apparent KD of MS2 coat protein: 12.3 nM
Input ligand: none
  apparent KD of MS2 coat protein: 12.1 nM
[1]
  apparent KD of MS2 coat protein: 18.3 nM
[2]
  apparent KD of MS2 coat protein: 12.7 nM
[3]
  apparent KD of MS2 coat protein: 10.2 nM

## GCCGCCGGUGCUUCAUUCCCUGAGCGACGGCGAGGACCGGUACGGCCGCCACUCGGCUCGGUACAUGAGGAUCACCCAUGUCUUU [theeternabot_exclusion_MS2_Trp_A_11]
Input ligand: arginine 13.2 mM
  apparent KD of MS2 coat protein: 30.7 nM
[1]
  apparent KD of MS2 coat protein: 58.4 nM
[2]
  apparent KD of MS2 coat protein: 60.8 nM

## AUGCAACAUGAGGAUCACCCAUGUGGUGAUACCAGUCGACAAGUAGACCCUUGGCAGCACAGCCGAUAUCGAGAGAGAUUUUUGG [theeternabot_sameState_MS2_Theo_A_23]
Input ligand: arginine 13.2 mM
  apparent KD of MS2 coat protein: 64.4 nM
[1]
  apparent KD of MS2 coat protein: 476 nM
[3]
  apparent KD of MS2 coat protein: 824 nM

## CAAUGCGGUUAGGAUACCAGCGACACACACUUCUCACAACACAUGAGGAUCACCCAUGUCCGCCCUUGGCAGCCUUGACUAAGGU [theeternabot_exclusion_MS2_Theo_B_39]
Input ligand: arginine 13.2 mM
  apparent KD of MS2 coat protein: 30.2 nM
[1]
  apparent KD of MS2 coat protein: 51.8 nM
[3]
  apparent KD of MS2 coat protein: 27.2 nM

## ACAUGAGGAUCACCCAUGUUUGUUGUUCCUCGAGGACCGGUACGGCCGCCACUCGAACGAGUGGCACGCGAGUGCGCACUCGCGU [aPa]
Input ligand: arginine 13.2 mM
  apparent KD of MS2 coat protein: 13.9 nM
[1]
  apparent KD of MS2 coat protein: 19.6 nM
[2]
  apparent KD of MS2 coat protein: 13.1 nM
[3]
  apparent KD of MS2 coat protein: 13 nM

## GCACGACAUGAGGAUCACCCAUGUGCAGAUACCAGUAAUGUAUAUUACCCUUGGCAGCUGAGUAGGUCUGGAGGGCUAUAGGUAA [Same State Theophylline A GF11]
Input ligand: arginine 13.2 mM
  apparent KD of MS2 coat protein: 11.6 nM
Input ligand: none
  apparent KD of MS2 coat protein: 12.3 nM
[1]
  apparent KD of MS2 coat protein: 20.6 nM
[2]
  apparent KD of MS2 coat protein: 15.4 nM
[3]
  apparent KD of MS2 coat protein: 14.6 nM

## AAUGUCGGAUCGGCCGCCACUGGUUGGCCCUGUGUACAUGAGGAUCACCCAUGUCCAUCCCAAACCAGGACCGGGAUCUUUAUGU [Xeananor]
Input ligand: arginine 13.2 mM
  apparent KD of MS2 coat protein: 37.9 nM
[1]
  apparent KD of MS2 coat protein: 51.7 nM
[2]
  apparent KD of MS2 coat protein: 40.4 nM

## AGAGCAUUGACGGCCGCCACUCGUGUCACAUGAGGAUCACCCAUGUGACGGGUGAUCGCCCGGUUGAGGACCGGGUCAAUGCUCA [Omei Tryp SS B v8]
Input ligand: arginine 13.2 mM
  apparent KD of MS2 coat protein: 10.4 nM
[1]
  apparent KD of MS2 coat protein: 13 nM
[2]
  apparent KD of MS2 coat protein: 11.2 nM

## UCAUUUUUCACGGCCGCCACUUCAAGGUCCUGAGGCUGGGCAACACAUGAGGAUCACCCAUGUCGAAGGACCGGGUGAAGCUACC [theeternabot_sameState_MS2_Trp_B_34]
Input ligand: arginine 13.2 mM
  apparent KD of MS2 coat protein: 152 nM
[1]
  apparent KD of MS2 coat protein: 248 nM
[2]
  apparent KD of MS2 coat protein: 527 nM

## CUAAUUAUAUCGGCCGCCACUUACUCAUGAGGUAACAACAUGAGGAUCACCCAUGUUUGAGGAUCAAGGACCGGGAUAUAAUUAG [AstrosSSTry#24]
Input ligand: arginine 13.2 mM
  apparent KD of MS2 coat protein: 30.5 nM
[1]
  apparent KD of MS2 coat protein: 33 nM
[2]
  apparent KD of MS2 coat protein: 34.9 nM

## ACUCGGUGUUUGUUGCUCCGAGUACGUGAUACCAGUUAAUUUUAUGGCCCUUGGCAGCAUGGGACAUGAGGAUCACCCAUGUUUA [#04 SameState-TheophyllineA]
Input ligand: arginine 13.2 mM
  apparent KD of MS2 coat protein: 125 nM
[1]
  apparent KD of MS2 coat protein: 344 nM
[3]
  apparent KD of MS2 coat protein: 318 nM

## GUGACUUACGGGCGCCAUUUGUGAUAGGAAGGAGCGGCGAAAUAGCCAGGUAGGUCGCCUAUACAUGAGGAUCACCCAUGUCACC [Veveatonus]
Input ligand: arginine 13.2 mM
  apparent KD of MS2 coat protein: 45.1 nM
Input ligand: none
  apparent KD of MS2 coat protein: 105 nM
[1]
  apparent KD of MS2 coat protein: 64.9 nM
[2]
  apparent KD of MS2 coat protein: 84.6 nM
[3]
  apparent KD of MS2 coat protein: 72.6 nM

## GUCUUGGGAUCGGCCGCCACUACAUGAGGAUCACCCAUGUGGACAAAUAGGGUUUUUAAGCUCGGUAGGACCGGGAUUCGGACAU [Marasosoge]
Input ligand: arginine 13.2 mM
  apparent KD of MS2 coat protein: 12.9 nM
[1]
  apparent KD of MS2 coat protein: 16.7 nM
[2]
  apparent KD of MS2 coat protein: 16.3 nM

## UGUAUGUGAUCUGAUACCAGUCCAACUGGUAAAGCACGAGGAUCACCCGUGUAAAAUUGGGACCCUUGGCAGCAGAUCGCAUACU
Input ligand: arginine 13.2 mM
  apparent KD of MS2 coat protein: 96.8 nM
Input ligand: none
  apparent KD of MS2 coat protein: 228 nM
[1]
  apparent KD of MS2 coat protein: 352 nM
[2]
  apparent KD of MS2 coat protein: 57.8 nM
[3]
  apparent KD of MS2 coat protein: 115 nM

## AGUCUUGUAGGAAGGAGCGCAUACUUCACAUGAGGAUCACCCAUGUCAAGACGUGAGUCAGUGCAGGUAGGUCGCCUAACUAAGA [Same State - Arginine B (Freestyle 14)]
Input ligand: arginine 13.2 mM
  apparent KD of MS2 coat protein: 18.6 nM
Input ligand: none
  apparent KD of MS2 coat protein: 17.3 nM
[1]
  apparent KD of MS2 coat protein: 28.7 nM
[2]
  apparent KD of MS2 coat protein: 26.3 nM
[3]
  apparent KD of MS2 coat protein: 18 nM

## AGCUCUGAUACGGCCGCCACUAGAUGGUGUUGUAAGAGACGCCUACAUGAGGAUCACCCAUGUCAUAGGACCGGGUAUAAAUACA [theeternabot_sameState_MS2_Trp_B_8]
Input ligand: arginine 13.2 mM
  apparent KD of MS2 coat protein: 27.8 nM
Input ligand: none
  apparent KD of MS2 coat protein: 26.4 nM
[1]
  apparent KD of MS2 coat protein: 30.7 nM
[2]
  apparent KD of MS2 coat protein: 46.4 nM
[3]
  apparent KD of MS2 coat protein: 18.2 nM

## GGAGUAGGAAACUAUUCCAAUCCUCGUGAACGAGGACCGGUACGGCCGCCACUCGAUAAAUAAAUACAUGAGGAUCACCCAUGUU [Ex Tryptophan A 23]
Input ligand: arginine 13.2 mM
  apparent KD of MS2 coat protein: 38 nM
[1]
  apparent KD of MS2 coat protein: 71.4 nM
[2]
  apparent KD of MS2 coat protein: 82.1 nM

## AUCCAUAGCCGAAGGAGCGCAGUAGGAUGACAUGAGGAUCACCCAUGUGUGUGAUGUGGAUUGCAGGUAGGUCGCGGAGUGGGAU [Exclusion - Arginine B (Freestyle 6)]
Input ligand: arginine 13.2 mM
  apparent KD of MS2 coat protein: 35 nM
Input ligand: none
  apparent KD of MS2 coat protein: 58.7 nM
[1]
  apparent KD of MS2 coat protein: 135 nM
[2]
  apparent KD of MS2 coat protein: 63 nM
[3]
  apparent KD of MS2 coat protein: 47.2 nM

## ACAAGGACAUGAGGAUCACCCAUGUGGGAAGGAGCGCAUAAAUAUGCAGGUAGGUCGCCCGGCGUGAUAUUUAAUAUUUUAAUAA [Exclusion - Arginine A]
Input ligand: arginine 13.2 mM
  apparent KD of MS2 coat protein: 34 nM
Input ligand: none
  apparent KD of MS2 coat protein: 55.7 nM
[1]
  apparent KD of MS2 coat protein: 79.4 nM
[2]
  apparent KD of MS2 coat protein: 73.5 nM
[3]
  apparent KD of MS2 coat protein: 60.2 nM

From the supplement of paper PMC9170038
